# Experimental data reported in US20070078092A1 (CUREGENICS, published 2007).
# Numbered stars: 1 amine (or outer) side, 2 acyl side, 3 side chain; on linkers, the order of the positions; unused ones are H or OH. Square brackets hold non-standard residues; d marks the D form. Ends that are not written are not given here. * marks the point of attachment. Cholesteryloxycarbonyl = CC(C)CCC[C@@H](C)[C@H]1CC[C@H]2[C@@H]3CC=C4C[C@@H](OC(=O)*)CC[C@]4(C)[C@H]3CC[C@]12C; Ser(Me) = COC[C@H](N[*:1])C(=O)[*:2]; hLeu = CC(C)CC[C@H](N)C(=O)O; Nva = CCC[C@H](N)C(=O)O; Dap = NC[C@H](N)C(=O)O; GABA = NCCCC(=O)O; βAla = NCCC(=O)O
# B1: PTR 6962 (peptide)
# peptide: Cholesteryloxycarbonyl-[dK][dK][dK][dK][dK][dK][dK][dK]RPR[Nva]Y[Dap][hLeu]-NH2
# SMILES: CCC[C@H](NC(=O)[C@H](CCCNC(=N)N)NC(=O)[C@@H]1CCCN1C(=O)[C@H](CCCNC(=N)N)NC(=O)[C@@H](CCCCN)NC(=O)[C@@H](CCCCN)NC(=O)[C@@H](CCCCN)NC(=O)[C@@H](CCCCN)NC(=O)[C@@H](CCCCN)NC(=O)[C@@H](CCCCN)NC(=O)[C@@H](CCCCN)NC(=O)[C@@H](CCCCN)NC(=O)O[C@H]1CC[C@@]2(C)C(=CC[C@H]3[C@@H]4CC[C@H]([C@H](C)CCCC(C)C)[C@@]4(C)CC[C@@H]32)C1)C(=O)N[C@@H](Cc1ccc(O)cc1)C(=O)N[C@@H](CN)C(=O)N[C@@H](CCC(C)C)C(N)=O
# B2: PTR 6294 (peptide)
# peptide: Cholesteryloxycarbonyl-GRPR[Nva]Y[Dap][hLeu]-NH2
# SMILES: CCC[C@H](NC(=O)[C@H](CCCNC(=N)N)NC(=O)[C@@H]1CCCN1C(=O)[C@H](CCCNC(=N)N)NC(=O)CNC(=O)O[C@H]1CC[C@@]2(C)C(=CC[C@H]3[C@@H]4CC[C@H]([C@H](C)CCCC(C)C)[C@@]4(C)CC[C@@H]32)C1)C(=O)N[C@@H](Cc1ccc(O)cc1)C(=O)N[C@@H](CN)C(=O)N[C@@H](CCC(C)C)C(N)=O
# B3: PTR 6296 (peptide)
# peptide: Cholesteryloxycarbonyl-[βAla]RPR[Nva]Y[Dap][hLeu]-NH2
# SMILES: CCC[C@H](NC(=O)[C@H](CCCNC(=N)N)NC(=O)[C@@H]1CCCN1C(=O)[C@H](CCCNC(=N)N)NC(=O)CCNC(=O)O[C@H]1CC[C@@]2(C)C(=CC[C@H]3[C@@H]4CC[C@H]([C@H](C)CCCC(C)C)[C@@]4(C)CC[C@@H]32)C1)C(=O)N[C@@H](Cc1ccc(O)cc1)C(=O)N[C@@H](CN)C(=O)N[C@@H](CCC(C)C)C(N)=O
# B4: PTR 6298 (peptide)
# peptide: Cholesteryloxycarbonyl-[GABA]RPR[Nva]Y[Dap][hLeu]-NH2
# SMILES: CCC[C@H](NC(=O)[C@H](CCCNC(=N)N)NC(=O)[C@@H]1CCCN1C(=O)[C@H](CCCNC(=N)N)NC(=O)CCCNC(=O)O[C@H]1CC[C@@]2(C)C(=CC[C@H]3[C@@H]4CC[C@H]([C@H](C)CCCC(C)C)[C@@]4(C)CC[C@@H]32)C1)C(=O)N[C@@H](Cc1ccc(O)cc1)C(=O)N[C@@H](CN)C(=O)N[C@@H](CCC(C)C)C(N)=O
# B5: PTR 6304 (peptide)
# peptide: Cholesteryloxycarbonyl-RPR[Nva]Y[Ser(Me)][hLeu]-NH2
# SMILES: CCC[C@H](NC(=O)[C@H](CCCNC(=N)N)NC(=O)[C@@H]1CCCN1C(=O)[C@H](CCCNC(=N)N)NC(=O)O[C@H]1CC[C@@]2(C)C(=CC[C@H]3[C@@H]4CC[C@H]([C@H](C)CCCC(C)C)[C@@]4(C)CC[C@@H]32)C1)C(=O)N[C@@H](Cc1ccc(O)cc1)C(=O)N[C@@H](COC)C(=O)N[C@@H](CCC(C)C)C(N)=O
# B6: PTR 6306 (peptide)
# peptide: Cholesteryloxycarbonyl-GRPR[Nva]Y[Ser(Me)][hLeu]-NH2
# SMILES: CCC[C@H](NC(=O)[C@H](CCCNC(=N)N)NC(=O)[C@@H]1CCCN1C(=O)[C@H](CCCNC(=N)N)NC(=O)CNC(=O)O[C@H]1CC[C@@]2(C)C(=CC[C@H]3[C@@H]4CC[C@H]([C@H](C)CCCC(C)C)[C@@]4(C)CC[C@@H]32)C1)C(=O)N[C@@H](Cc1ccc(O)cc1)C(=O)N[C@@H](COC)C(=O)N[C@@H](CCC(C)C)C(N)=O
# B7: PTR 6308 (peptide)
# peptide: Cholesteryloxycarbonyl-[βAla]RPR[Nva]Y[Ser(Me)][hLeu]-NH2
# SMILES: CCC[C@H](NC(=O)[C@H](CCCNC(=N)N)NC(=O)[C@@H]1CCCN1C(=O)[C@H](CCCNC(=N)N)NC(=O)CCNC(=O)O[C@H]1CC[C@@]2(C)C(=CC[C@H]3[C@@H]4CC[C@H]([C@H](C)CCCC(C)C)[C@@]4(C)CC[C@@H]32)C1)C(=O)N[C@@H](Cc1ccc(O)cc1)C(=O)N[C@@H](COC)C(=O)N[C@@H](CCC(C)C)C(N)=O
# B8: PTR 6312 (peptide)
# peptide: [dK][dK][dK][dK][dK][dK][dK][dK]RPR[Nva]Y[Dap][hLeu]K(Cholesteryloxycarbonyl)-NH2
# modifications: N-terminus assumed
# SMILES: CCC[C@H](NC(=O)[C@H](CCCNC(=N)N)NC(=O)[C@@H]1CCCN1C(=O)[C@H](CCCNC(=N)N)NC(=O)[C@@H](CCCCN)NC(=O)[C@@H](CCCCN)NC(=O)[C@@H](CCCCN)NC(=O)[C@@H](CCCCN)NC(=O)[C@@H](CCCCN)NC(=O)[C@@H](CCCCN)NC(=O)[C@@H](CCCCN)NC(=O)[C@H](N)CCCCN)C(=O)N[C@@H](Cc1ccc(O)cc1)C(=O)N[C@@H](CN)C(=O)N[C@@H](CCC(C)C)C(=O)N[C@@H](CCCCNC(=O)O[C@H]1CC[C@@]2(C)C(=CC[C@H]3[C@@H]4CC[C@H]([C@H](C)CCCC(C)C)[C@@]4(C)CC[C@@H]32)C1)C(N)=O
# B9: PTR 6318 (peptide)
# peptide: Cholesteryloxycarbonyl-[dK][dK]RPR[Nva]Y[Dap][hLeu]-NH2
# SMILES: CCC[C@H](NC(=O)[C@H](CCCNC(=N)N)NC(=O)[C@@H]1CCCN1C(=O)[C@H](CCCNC(=N)N)NC(=O)[C@@H](CCCCN)NC(=O)[C@@H](CCCCN)NC(=O)O[C@H]1CC[C@@]2(C)C(=CC[C@H]3[C@@H]4CC[C@H]([C@H](C)CCCC(C)C)[C@@]4(C)CC[C@@H]32)C1)C(=O)N[C@@H](Cc1ccc(O)cc1)C(=O)N[C@@H](CN)C(=O)N[C@@H](CCC(C)C)C(N)=O
# B10: PTR 6320 (peptide)
# peptide: Cholesteryloxycarbonyl-[dK][dK][dK]RPR[Nva]Y[Dap][hLeu]-NH2
# SMILES: CCC[C@H](NC(=O)[C@H](CCCNC(=N)N)NC(=O)[C@@H]1CCCN1C(=O)[C@H](CCCNC(=N)N)NC(=O)[C@@H](CCCCN)NC(=O)[C@@H](CCCCN)NC(=O)[C@@H](CCCCN)NC(=O)O[C@H]1CC[C@@]2(C)C(=CC[C@H]3[C@@H]4CC[C@H]([C@H](C)CCCC(C)C)[C@@]4(C)CC[C@@H]32)C1)C(=O)N[C@@H](Cc1ccc(O)cc1)C(=O)N[C@@H](CN)C(=O)N[C@@H](CCC(C)C)C(N)=O
# B11: PTR 6322 (peptide)
# peptide: Cholesteryloxycarbonyl-[dK][dK][dK][dK]RPR[Nva]Y[Dap][hLeu]-NH2
# SMILES: CCC[C@H](NC(=O)[C@H](CCCNC(=N)N)NC(=O)[C@@H]1CCCN1C(=O)[C@H](CCCNC(=N)N)NC(=O)[C@@H](CCCCN)NC(=O)[C@@H](CCCCN)NC(=O)[C@@H](CCCCN)NC(=O)[C@@H](CCCCN)NC(=O)O[C@H]1CC[C@@]2(C)C(=CC[C@H]3[C@@H]4CC[C@H]([C@H](C)CCCC(C)C)[C@@]4(C)CC[C@@H]32)C1)C(=O)N[C@@H](Cc1ccc(O)cc1)C(=O)N[C@@H](CN)C(=O)N[C@@H](CCC(C)C)C(N)=O
# B12: PTR 6324 (peptide)
# peptide: Cholesteryloxycarbonyl-[dK][dK][dK][dK][dK]RPR[Nva]Y[Dap][hLeu]-NH2
# SMILES: CCC[C@H](NC(=O)[C@H](CCCNC(=N)N)NC(=O)[C@@H]1CCCN1C(=O)[C@H](CCCNC(=N)N)NC(=O)[C@@H](CCCCN)NC(=O)[C@@H](CCCCN)NC(=O)[C@@H](CCCCN)NC(=O)[C@@H](CCCCN)NC(=O)[C@@H](CCCCN)NC(=O)O[C@H]1CC[C@@]2(C)C(=CC[C@H]3[C@@H]4CC[C@H]([C@H](C)CCCC(C)C)[C@@]4(C)CC[C@@H]32)C1)C(=O)N[C@@H](Cc1ccc(O)cc1)C(=O)N[C@@H](CN)C(=O)N[C@@H](CCC(C)C)C(N)=O
# B13: PTR 6326 (peptide)
# peptide: Cholesteryloxycarbonyl-[dK][dK][dK][dK][dK][dK]RPR[Nva]Y[Dap][hLeu]-NH2
# SMILES: CCC[C@H](NC(=O)[C@H](CCCNC(=N)N)NC(=O)[C@@H]1CCCN1C(=O)[C@H](CCCNC(=N)N)NC(=O)[C@@H](CCCCN)NC(=O)[C@@H](CCCCN)NC(=O)[C@@H](CCCCN)NC(=O)[C@@H](CCCCN)NC(=O)[C@@H](CCCCN)NC(=O)[C@@H](CCCCN)NC(=O)O[C@H]1CC[C@@]2(C)C(=CC[C@H]3[C@@H]4CC[C@H]([C@H](C)CCCC(C)C)[C@@]4(C)CC[C@@H]32)C1)C(=O)N[C@@H](Cc1ccc(O)cc1)C(=O)N[C@@H](CN)C(=O)N[C@@H](CCC(C)C)C(N)=O
# B14: PTR 6328 (peptide)
# peptide: Cholesteryloxycarbonyl-GGRPR[Nva]Y[Dap][hLeu]-NH2
# SMILES: CCC[C@H](NC(=O)[C@H](CCCNC(=N)N)NC(=O)[C@@H]1CCCN1C(=O)[C@H](CCCNC(=N)N)NC(=O)CNC(=O)CNC(=O)O[C@H]1CC[C@@]2(C)C(=CC[C@H]3[C@@H]4CC[C@H]([C@H](C)CCCC(C)C)[C@@]4(C)CC[C@@H]32)C1)C(=O)N[C@@H](Cc1ccc(O)cc1)C(=O)N[C@@H](CN)C(=O)N[C@@H](CCC(C)C)C(N)=O
# B15: PTR 6330 (peptide)
# peptide: Cholesteryloxycarbonyl-GGGRPR[Nva]Y[Dap][hLeu]-NH2
# SMILES: CCC[C@H](NC(=O)[C@H](CCCNC(=N)N)NC(=O)[C@@H]1CCCN1C(=O)[C@H](CCCNC(=N)N)NC(=O)CNC(=O)CNC(=O)CNC(=O)O[C@H]1CC[C@@]2(C)C(=CC[C@H]3[C@@H]4CC[C@H]([C@H](C)CCCC(C)C)[C@@]4(C)CC[C@@H]32)C1)C(=O)N[C@@H](Cc1ccc(O)cc1)C(=O)N[C@@H](CN)C(=O)N[C@@H](CCC(C)C)C(N)=O
# Biological target: protein kinase B (PKB)
# Experiment: cell-based or functional assay
row,Binder,"IC50, in vitro kinase assay PKB"
1,B1,100 nM
2,B2,1000 nM
3,B3,2000 nM
4,B4,2000 nM
5,B5,500 nM
6,B6,500 nM
7,B7,500 nM
8,B8,100 nM
9,B9,200 nM
10,B10,200 nM
11,B11,100 nM
12,B12,100 nM
13,B13,100 nM
14,B14,1000 nM
15,B15,1000 nM
